Reference: PMC7442622, “A functionally neutral single chain antibody to measure beta‐1 integrin uptake and recycling” (Traffic (Copenhagen, Denmark), 2020)

Biological target: T1, β1 integrin (Homo sapiens, UniProt P05556)
T1 construct: β1 integrin (integrin beta-1), endogenous on the surface of H1975 and hTERT-RPE1 cells; On cells β1 integrin stands in αβ heterodimers; also called beta‐1 integrin; endogenous β1 integrin; source: endogenous, on H1975 cells; endogenous, on hTERT‐RPE1 cells
Test: ELISA; cell-based ELISA binding isotherm on H1975 cells seeded on gelatin- and fibronectin-coated 96-well plates; antibody dilutions in PBS4+ (1 mM MgCl2, 1 mM CaCl2, 5 mM glucose, 1% BSA), 30 minutes at 4°C; KD as the concentration at half-maximal binding; n = 4
Settings: one partner purified

T1 sequence (P05556 21-798): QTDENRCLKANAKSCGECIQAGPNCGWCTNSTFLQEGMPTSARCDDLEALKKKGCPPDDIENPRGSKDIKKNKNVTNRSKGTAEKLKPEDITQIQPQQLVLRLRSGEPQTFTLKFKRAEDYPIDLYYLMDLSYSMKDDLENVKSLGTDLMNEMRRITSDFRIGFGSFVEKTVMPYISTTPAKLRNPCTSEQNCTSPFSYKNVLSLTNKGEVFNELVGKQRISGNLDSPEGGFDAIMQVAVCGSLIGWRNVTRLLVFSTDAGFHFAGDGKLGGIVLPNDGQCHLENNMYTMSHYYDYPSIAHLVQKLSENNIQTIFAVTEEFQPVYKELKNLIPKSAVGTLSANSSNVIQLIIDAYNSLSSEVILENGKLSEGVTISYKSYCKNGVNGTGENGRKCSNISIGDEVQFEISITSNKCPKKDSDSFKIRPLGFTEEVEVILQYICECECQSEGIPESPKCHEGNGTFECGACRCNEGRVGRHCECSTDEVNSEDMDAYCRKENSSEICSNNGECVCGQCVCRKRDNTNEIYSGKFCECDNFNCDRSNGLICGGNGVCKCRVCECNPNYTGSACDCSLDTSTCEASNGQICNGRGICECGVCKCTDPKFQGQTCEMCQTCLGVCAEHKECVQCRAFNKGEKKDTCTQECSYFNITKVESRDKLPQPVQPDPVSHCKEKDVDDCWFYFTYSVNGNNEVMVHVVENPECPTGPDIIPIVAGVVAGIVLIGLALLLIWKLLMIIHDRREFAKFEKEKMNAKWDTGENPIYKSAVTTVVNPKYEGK

Binder | Kd
MBP‐scFv^K20 (scFv, V domains shown, VH of mouse mAb K20; flexible linker, 3x repeat of GGGGS; VL of mouse mAb K20; 71 kDa fusion; a TEV site lies between MBP and the scFv; monovalent; also called MBP‐fused scFv^K20; anti‐β1 integrin scFv^K20; source: High Five insect cells, baculovirus, secreted; purified (IMAC, SEC peak 2); also as culture media containing secreted scFv^K20; not shown: His6, N-terminal, kept; MBP, N-terminal, …) VH: QVQLQESGTELVRPGASVKLSCKASGYTFTDYYISWVKQRPGQGLEWIARIYPGSGNTFYNEKFKGKATLTAETSSNTAYMQLSSLTSEDSAVYFCAIYYGSGDYWGQGTTVTVSS VL: DIQLTQSPSSLSASLGGKVTITCKASQDINKYIAWYQHEPGKGPRLLIRYTSKLESGIPSRFSGSGSGRDYSFSISNLEPEDIATYYCLQYYNLWTFGGGTKLEIK | 6.54 ± 1.34 nM
mouse monoclonal anti‐β1 integrin antibody mAb K20 (antibody, V domains shown, VH of mAb K20; constant region of the heavy chain of a mouse IgG; VL of mAb K20; constant region of the light chain of a mouse antibody; Bivalent IgG; also called mAb K20 IgG; parent mAb K20; source: bought: Beckman Coulter; copies: 2 + 2) VH: QVQLQESGTELVRPGASVKLSCKASGYTFTDYYISWVKQRPGQGLEWIARIYPGSGNTFYNEKFKGKATLTAETSSNTAYMQLSSLTSEDSAVYFCAIYYGSGDYWGQGTTVTVSS VL: DIQLTQSPSSLSASLGGKVTITCKASQDINKYIAWYQHEPGKGPRLLIRYTSKLESGIPSRFSGSGSGRDYSFSISNLEPEDIATYYCLQYYNLWTFGGGTKLEIK | 1.2 ± 0.14 nM
